Laboratory results published in PMC11586414.
“And” between values parts separate entries of the source, which are not always exact repeats. Equal values may be shown once.

How the values were obtained:
[1] = molecular target: HEPN^Lpg WT (HEPN toxin of the Legionella pneumophila HEPN–MNT module) (Legionella pneumophila Philadelphia 1) (UniProt Q5ZRG2); assay: crystal structure
[2] = molecular target: HEPN^Lpg WT (HEPN toxin of the Legionella pneumophila HEPN–MNT module) (Legionella pneumophila Philadelphia 1) (UniProt Q5ZRG2); assay: AUC

| Substance | stoichiometry N (MNT^Lpg per HEPN^Lpg chain (1:4)) [1] | stoichiometry N [2] | stoichiometry N [1] |
| --- | --- | --- | --- |
| MNT^Lpg (MNT antitoxin of the Legionella pneumophila HEPN–MNT module) (from UniProt Q5ZRG1 1-108) (enzyme) | 0.25 | – | – |
| HEPN^Lpg WT (HEPN toxin of the Legionella pneumophila HEPN–MNT module) (from UniProt Q5ZRG2 1-139) (natural protein) | – | 2 and 4 | 4 |
